In the supplement of paper PMC12764529:
± gives the half width of the 95% confidence interval.

What was measured:
[1] = folding stability dG unfold from trypsin proteolysis; higher = more stable
How it was run: (§1)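 K50 was inferred by Bayesian fitting of sequencing counts obtained after protease digestion of designed mini-proteins. Unfolding free energy was derived by comparison with a sequence-predicted unfolded-state K50 and a shared folded-state K50, for each protease or both combined. The mini-proteins were under 80 residues, had no cysteine, were carried in a PA-tagged cDNA display construct, and were kept only if AlphaFold2 dimer inter-PAE exceeded 15.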

[2] = folding stability dG unfold from chymotrypsin proteolysis; higher = more stable
How it was run: as §1

[3] = folding stability dG unfold (combined trypsin and chymotrypsin); higher = more stable
How it was run: as §1

Sequence	folding stability dG unfold [1]	folding stability dG unfold [2]	folding stability dG unfold [3]
SAGGMPGIRPVLRIRARVRFRGPEREEEIEIELHPEALEAGLTAEELARLRAEELGYEVEIEEIEIESAGGS [r16_554_TrMRF]	1.26 ± 0.097 kcal/mol	2.01 ± 0.068 kcal/mol	1.84 ± 0.1 kcal/mol
SAGGSMKFSATVEYDPANNIYTVTVPITRKDTGEVIPVSVPVPGSDLTTAEQLAEEIAEKLEKEGLSAGGSA [r2_221_JUSTAS]	0.627 ± 0.092 kcal/mol	0.518 ± 0.14 kcal/mol	0.621 ± 0.19 kcal/mol
SAGGMTKIEVEYYPEKITVTVTTDNPSENPLDIIKKKTGFKIEGGEVLYPSPNVVVVKLKVDPKDLKKSAGG [r13_498_JUSTAS]	0.443 ± 0.11 kcal/mol	1.07 ± 0.11 kcal/mol	0.799 ± 0.27 kcal/mol
SAGGSAGGSSNGITLKKPGGIEIKLPKPPSVKPVTVTTTFVFTTPDGKLVFVPKTTTLPPSLLSAGGSAGGS [r12_1027_JUSTAS]	1.59 ± 0.15 kcal/mol	2.25 ± 0.2 kcal/mol	1.83 ± 0.29 kcal/mol
SATITVHNPWNGQPIEIRIDPGMTPEEIKKKIEKVPGIPPGTRDAVEKAIEYFEAYRQNPEQRKKLKKESAG [r14_732_TrROS]	0.241 ± 0.093 kcal/mol	0.934 ± 0.096 kcal/mol	0.675 ± 0.13 kcal/mol
SAGGSAGGSKEKTYVIKVTITNENGEEFTLELTVTMTEEEAEELAKKLKELYPNAKVTIEKLPSAGGSAGGS [r12_268_TrROS_Hall]	4.16 ± 0.21 kcal/mol	4.09 ± 0.12 kcal/mol	4.13 ± 0.16 kcal/mol
SAGGEPGALSSSTYTITAPAKSVSKTVTVSYNPADGTATITFPESGKTITVPAVSDEEVLALIKEILLSAGG [r13_439_JUSTAS]	0.697 ± 0.025 kcal/mol	-0.67 ± 0.31 kcal/mol	0.322 ± 0.065 kcal/mol
SAGGSAGGSAGGSKKTITVTVLFKDKNGKPVYIAKAKVTLNENGEETIEITEIYPLEDLSAGGSAGGSAGGS [r4_117_TrROS_Hall]	1.8 ± 0.12 kcal/mol	2.36 ± 0.15 kcal/mol	2.34 ± 0.27 kcal/mol
SAGGVPVSVEVDPRGEVTITNPVNGSSLVIPVPPDAEVTVVSLPPSSVTVRVTVGGEERDIVLPPSSVSAGG [r19_309_JUSTAS]	0.587 ± 0.023 kcal/mol	0.662 ± 0.034 kcal/mol	0.621 ± 0.065 kcal/mol
SAGGSAPPQTIPIIIKDPNGKVRIEPVQFDPGPGNFNWDIEHPNGEKHTITFTGPPDDLPPGDYIKSAGGSA [r15_596_TrROS]	-0.575 ± 0.13 kcal/mol	1.37 ± 0.068 kcal/mol	0.784 ± 0.17 kcal/mol
SMVTVTFPDASPEEIRAAIEAHPDRDVVLVTAPGKEEELEKILKEYDYTKEEKALPDGRKVRVMKVKVPRSA [r9_1138_JUSTAS]	0.784 ± 0.14 kcal/mol	0.176 ± 0.42 kcal/mol	0.462 ± 0.25 kcal/mol
SAGGSAGGSAGGSVWIMIPLEEIKDLLPPGWTVEVEPQPMPNNGYIMVPVEIVPPDNAKSAGGSAGGSAGGS [r4_119_TrROS]	0.0715 ± 0.047 kcal/mol	0.861 ± 0.13 kcal/mol	0.552 ± 0.16 kcal/mol
SAGGSKKKEEVKEIDVVLVEVSEEEALKLAEETGKAVIVVFPDGELRIFYPDGTVETIKLPDLEELSAGGSA [r2_34_TrROS_Hall]	0.377 ± 0.062 kcal/mol	0.0647 ± 0.082 kcal/mol	0.296 ± 0.21 kcal/mol
SAGMKYRIVIENENGEKIEFEKLEDGTIKMTIEKDGKKEEITIKVPPGMTIEELLKKFPNAKIVKIEKVSAG [r5_259_TrROS_Hall]	2.78 ± 0.069 kcal/mol	3.45 ± 0.065 kcal/mol	3.23 ± 0.096 kcal/mol
SAGGSAGGGRLLIDRAFDSLEDIEEFLRELETPALVHLPDGTELFYERGDGFTEIHVIPPGELGSAGGSAGG [r6_641_TrMRF]	0.277 ± 0.072 kcal/mol	1.26 ± 0.053 kcal/mol	1 ± 0.099 kcal/mol
SAGGSAGGSAGGKFKIVKVEKVKNENGEEYVRVYLYNKDGKPVKEFTMSKEELEKLLKELSAGGSAGGSAGG [r7_891_TrROS_Hall]	2.72 ± 0.11 kcal/mol	2.96 ± 0.051 kcal/mol	2.88 ± 0.15 kcal/mol
SAGKIEFPMPNGYWFRIEIDPENNKVKVEYSPHNGQYKVKIPGKEEVQIPIKGMPFEEMAKEIIEKLLKSAG [r5_447_TrROS]	0.776 ± 0.17 kcal/mol	1.13 ± 0.19 kcal/mol	0.962 ± 0.4 kcal/mol
SAGGSAGGSMKTTLLAEKELPDGTRVELTRVESPGSLTYEVVTVSPEGTEVRTLPPDELPYLLSAGGSAGGS [r12_315_JUSTAS]	1.22 ± 0.082 kcal/mol	0.399 ± 0.23 kcal/mol	0.912 ± 0.15 kcal/mol
SAGGSAGGSAGGSPFTIKIKMEQPNGRKRTYTIEGEGDLDQIAKELEKHYPGRIKDIEISAGGSAGGSAGGS [r4_412_TrROS]	-0.101 ± 0.31 kcal/mol	0.783 ± 0.23 kcal/mol	0.548 ± 0.27 kcal/mol
SAGGSAGGSAGGMTVTTEKAAPSPRQVTVTTVYDPSTGTSVTIVTLPDGSLKVIPSGTLSAGGSAGGSAGGS [r10_996_JUSTAS]	0.193 ± 0.14 kcal/mol	-0.404 ± 0.22 kcal/mol	-0.247 ± 0.23 kcal/mol
SAGGKKIEIYKLKDALIIKIPEKGLLILLGNDTAIIFKVKSIKNNGKPKIISSKIISLEEILDLIKSSAGGS [r8_174_TrMRF]	2.79 ± 0.12 kcal/mol	3.75 ± 0.047 kcal/mol	3.31 ± 0.13 kcal/mol

Sequence	folding stability dG unfold [1]	folding stability dG unfold [2]	folding stability dG unfold [3]
SAGGSAKKPKIKIKIKITNENGEKIEIEIEAETEEEALEAAKKLAEELAKKPNIKEVKIEITEIEPSAGGSA [r15_698_TrROS_Hall]	1.74 ± 0.067 kcal/mol	2.19 ± 0.1 kcal/mol	2.07 ± 0.096 kcal/mol
PDDVYVMFEIEPTNDGIKIPIKVRVPGKPIAEVEVPVDPDDGKIKIMVKFPSPEALDEAEDLLKELGIKPTS [r1_455_TrROS]	0.319 ± 0.11 kcal/mol	0.42 ± 0.12 kcal/mol	0.537 ± 0.21 kcal/mol
SAGGSAGGSAGGSGYTVKITLKNPDGTESTITISGTGSKEEIINSIKKKYPNNVTKVIESAGGSAGGSAGGS [r4_412_JUSTAS]	1.37 ± 0.16 kcal/mol	1.94 ± 0.069 kcal/mol	1.53 ± 0.31 kcal/mol
SAGKKKKEVKKITLVIEFPEEMTEEELKERAEKLAEELKKKFPKIKKIEVKVEKKDGKLIVTVEIEIEKSAG [r5_446_TrROS_Hall]	2.02 ± 0.064 kcal/mol	1.78 ± 0.079 kcal/mol	1.88 ± 0.15 kcal/mol
SAGGSAGGSAGKKIIIKVKPNMTPEEIAKKLAEELGVEVEIKKVKKLKNGELYIEIEIKPSAGGSAGGSAGG [r17_222_TrROS_Hall]	3.09 ± 0.17 kcal/mol	2.48 ± 0.19 kcal/mol	2.82 ± 0.3 kcal/mol
SAGGSAGGSAGMEEIEIKFPENGKPLEIYRVPDGSAIIRNPGDGHYFQMDGNKIEIVGPLSAGGSAGGSAGG [r17_476_TrROS]	0.861 ± 0.048 kcal/mol	0.353 ± 0.13 kcal/mol	0.703 ± 0.18 kcal/mol
SAGGSAGGSAKVILLPSPDDSVVLITVHPDDTVEVTVLRLNPEDPTYEPVTVTVPLSYPELFSAGGSAGGSA [r18_503_TrMRF]	0.903 ± 0.044 kcal/mol	0.791 ± 0.19 kcal/mol	0.843 ± 0.18 kcal/mol
SAGGSAGGSMTTKTFKLPDGRTVTVTTEKLPNGTTKTTVTITVPGTGKTTTVPASEVPADFSGSAGGSAGGS [r12_797_JUSTAS]	1.24 ± 0.038 kcal/mol	2.08 ± 0.025 kcal/mol	1.83 ± 0.068 kcal/mol
SAMPVLVVIKRTVVLPRPGEELAKYEDPDGKVRRRVVVETLVVEVNPEDLPELVEFFKSLGIDEISVFGSAG [r14_509_TrMRF]	2.18 ± 0.039 kcal/mol	2.22 ± 0.031 kcal/mol	2.13 ± 0.11 kcal/mol
SAGGITIEWERNPDGYPNIKIQIRAPNGKKVAKLPIQFDPNDGGMTKLDLKKLLKEINLPPNVEVEFISAGG [r13_479_TrROS]	1.45 ± 0.05 kcal/mol	1.22 ± 0.13 kcal/mol	1.34 ± 0.13 kcal/mol
SAGGSAGGSAGPEKMRIEDIEHERNPEDGRHTVKIKIPNGPDITFQFTDPEDLDDFKLEVSAGGSAGGSAGG [r11_711_TrROS]	-0.274 ± 0.079 kcal/mol	0.334 ± 0.075 kcal/mol	0.0382 ± 0.22 kcal/mol
SPPIEIKPAPENYLIAKIIDPKTNKVYYILIPKDAKLDQPALVYHPDKKEYIPLKEILDLLKKGYPLSISSA [r9_250_TrMRF]	2.09 ± 0.075 kcal/mol	2.43 ± 0.059 kcal/mol	2.35 ± 0.14 kcal/mol
SAGGSAGGSAGGPNLRIKLKPYPDGKWKIDEIEVPDNHVTIPMRFGNGGEERKTMPPEQISAGGSAGGSAGG [r7_829_TrROS]	1.42 ± 0.065 kcal/mol	-0.484 ± 0.48 kcal/mol	0.666 ± 0.29 kcal/mol
SAGGSAGGSGIKIIMEFIFPDDGYIFKIEIDIKPNPENGEPVIEMKIEMYPIDPGQPPDLKDLSAGGSAGGS [r12_700_TrROS]	2.48 ± 0.11 kcal/mol	3.45 ± 0.071 kcal/mol	3.26 ± 0.2 kcal/mol
SAGGSAGGSPDVVVTVEKNEDGEETVTVLMSREDVERLAAALPDVKVEELPDGLVLLTVRVKPSAGGSAGGS [r20_231_TrROS_Hall]	0.51 ± 0.038 kcal/mol	0.827 ± 0.07 kcal/mol	0.728 ± 0.089 kcal/mol
SAGGSAGGPLVFEADATGTAPDDKELVIERVLVVVDPVRGEAHLYARIPGTGEWRYLGTFDLKDSAGGSAGG [r6_329_TrMRF]	2.91 ± 0.093 kcal/mol	3.315 ± 0.023 kcal/mol	3.21 ± 0.082 kcal/mol
SAGGSAMMELEIEIKVEGMTEEELRELAERLAAELTPEGWKVVAVRVERVDEEEGVVRVTVVVEPVSAGGSA [r15_96_TrROS_Hall]	4.31 ± 0.35 kcal/mol	3.83 ± 0.16 kcal/mol	4.18 ± 0.27 kcal/mol
SAGGSARPELVEYRVRIGDVEVRVVLPEGLEELLRRIPDVEVEPVRRFEAPPPPVVLERSELGDFASAGGSA [r15_443_TrMRF]	1.56 ± 0.051 kcal/mol	1.77 ± 0.11 kcal/mol	1.71 ± 0.14 kcal/mol
SAGGSAKIRYIKVLLRFPPKGEKKIIVIPIENIPEDRPEELIELAKAIAEAFVEGTGAEVEGIEISSAGGSA [r15_1013_TrMRF]	4.34 ± 0.2 kcal/mol	3.88 ± 0.072 kcal/mol	4.05 ± 0.13 kcal/mol
SAGGMKKYLLTLNVTLERPDSEESITLTKEVDSLEEAEKLKEEIEKKLKEEYPGRISFDVTIEEIEESAGGS [r16_475_JUSTAS]	3.72 ± 0.1 kcal/mol	4.15 ± 0.076 kcal/mol	4.13 ± 0.12 kcal/mol
SAGGSNVVEVEVEELPDGTVVLRVRVLRLLPNGELGGVVERPFVFPRELFENIPLEEIVRRAVEEGSAGGSA [r2_421_TrMRF]	3.39 ± 0.081 kcal/mol	3.758 ± 0.032 kcal/mol	3.63 ± 0.072 kcal/mol
